B1: LYV379 (chimeric antibody, 17C5C2 in human IgG4SP / human kappa) (antibody, V domains shown)
VH: EVHILETGGGLVKPGGSLGLSCTTSGFNFNDYFMNWVRQAPGKGLEWVAQIRNGNYDYAAYYAESLEGRVTISRDDSKSSVNLQVSSLRAEDTAIYYCTSYYYDGHFDYFDNWGHGVMVTVSS
VL: DIKVTQSPSFLSASVGDRATINCKASQNLNKYLNWYQQKPGEPPKLLIYNTDNLYTGIPSRFSGSGSVADFTLTISGLQPEDVATYFCMQHNVRRTFGGGTKLELKR
notes: Human IgG4 S228P and human kappa; also called 17C5C2 chimeric
B2: LYV377 (chimeric antibody, 13F1A7 in human IgG4SP / human kappa) (antibody, V domains shown)
VH: EVQILETGGGLVKPGGSLRLSCATSGFNFNDSFMNWVRQAPGKGLEWVAQIRNKNYNYATYYTESLEGRVTISRDDSKSRVYLQVSSLRAEDSAVYYCTSYYYDGFADYFDYWGQGVMVTVSS
VL: DIKMTQSPSFLSASVGDSVTFTCKASQNIYIYLNWYQQKFGEAPKLLIYNTNNLQTGIPSRFSGSESGTVFTLTISSLQPEDVATYFCLQHSSRRTFGGGTKLELKR
notes: Human IgG4 S228P and human kappa; also called 13F1A7 chimeric; LTV377
B3: LYV391 (chimeric antibody, 36G7B8 in hG4SP / human kappa) (antibody, human IgG4 S228P, kappa, V domains shown)
VH: QVQLQQPGAELVRPGASVKLSCKASGYIFISYWIHWLKQRPGRGLEWIGRIDPNNGGTKYNEKFRYKASLTVDKSSSTAYMQLSSLTSEDSAVYYCTKGVITTLVAGDYWGQGTTLTVSS
VL: DVVMTQIPLSLPVSIGDQASISCRSSQSLVYSYGNTYLHWFLQKPGQSPKLLIYNVSNRFSGVPDRFSGSGSGTDFTLRISRVEAEDLGVYFCSQGTHVPWTFGGGTKLEIKR
notes: Human IgG4 S228P and human kappa; also called 36G7B8 chimeric; 366788 (LYV391)
B4: LYV376 (chimeric antibody, 19G6D6 in human IgG4SP / human kappa) (antibody, V domains shown)
VH: EVQLQQSGPELVKPGASVKIPCKASGYTFTDYNMDWVKQSHGKSLEWIGDINPNNDISIYNQKFRGKATLTVDKSSSTAYMELRSLTSEDTAVYYCARRFAYWGQGTLVTVSA
VL: EIVLTQSPTTMAASPGEKITITCSASSSISSNYLHWYQQKPGSSPKVLIYRTSNLASGVPVRFSGSGSGTSYSLTIGTMEAEDVATYYCQQGSSIPYTFGGGTKLEIKR
notes: also called 19G6D6 chimeric; 1966D6 (LYV376)
B5: LYV378 (chimeric antibody, 9F12D9 in human IgG4SP / human kappa) (antibody, V domains shown)
VH: EVHLVESGGGLVQPGRSLKLSCAASGFTFTNYGLHWIRQAPTKGLEWVASISPSGGVTYYRDSVKGRFTISRDNGKTTLHLQMDSLRSEDTATYYCALPFLGWGGANWIAHWGQGTLVTVSS
VL: DIQMTQSPASLSASLGETVSIECLASEDISNDLAWYQQKSGKSPQLLIYFVDRLLDGVPSRFSGSGSGTRHSLKISGMQPEDEADYFCQQSYKYPPTFGGGTKLELKR
notes: Human IgG4 S228P and human kappa; elsewhere it is 9F12D9; also called 9F12D9 chimeric; 9F12D8

Each binder was assayed against monkey CD40 protein (plate coat of the ELISA of Fig. 5) (cynomolgus monkey per paragraph 23; rhesus …) (assay: ELISA on monkey CD40 protein coated on the plate, anti-human IgG-HRP, A450).
In the case of B1, the “EC50 (read off the curve)” value is reported as roughly 5 ng/mL.

What follows are binders tested against T1, human CD40-His tag protein (Sino Biological Inc. Cat #10239-H08E) (human, UniProt P25942 21-193) (assay: ELISA, plate coated with human CD40-His at 1 ug/ml, anti-human IgG-HRP, A450).
T1 construct: also called human CD40 protein; CD40 protein; not shown: His tag
T1 sequence (P25942 21-193 limits assumed, stated change not applied): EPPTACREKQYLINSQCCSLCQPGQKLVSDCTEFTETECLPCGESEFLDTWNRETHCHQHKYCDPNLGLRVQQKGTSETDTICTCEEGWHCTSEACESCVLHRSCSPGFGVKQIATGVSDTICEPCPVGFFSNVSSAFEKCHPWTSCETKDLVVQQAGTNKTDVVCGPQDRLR
Experimental: CD40 protein (human CD40-His tag protein (Sino Biological Inc. Cat #10239-H08E) or rhesus monkey CD40-His (Sino Biological Inc. Cat #90097-C02H) was diluted in PBS to 1 ug/ml and used to coat an ELISA plate (Corning, Cat #9018, high binding) at a concentration of 50 ul/well. The plate was incubated overnight at 4° C. The plate was then decanted and washed with PBS-T, and 200 μl/well assay diluent (1×PBS/1% BSA/0.05% Tween-20/0.05% proclin 300) was added. After a 3 hour incubation at room temperature, the plate was washed with PBS-T three times. The testing antibodies were diluted in assay diluent to 0, 0.000003, 0.00003, 0.0003, 0.003, 0.03, and 0.3 ug/ml or approximately 0, 0.00002, 0.0002, 0.002, 0.02, 0.2 and 2 nM and then added to the plate (50 ul/well). The plate was incubated for one hour at 37° C. and then washed three times with PBS-T. Anti-human IgG-HRP conjugate (Bethyl Cat #A80-319P) at a 1:10,000 dilution was added to the plate (100 ul/well). The plate was incubated for 0.5 hour at 37° C., followed by washing with PBS-T three times. The TMB substrate solution was added (100 ul/well). The color was allowed to develop for 8 minutes before it was stopped with 100 ul/well 2N H₂SO₄. Absorbance at 450 nm was determined with an ELISA reader.
With B1 the “EC50 (read off the curve)” value was roughly 20 ng/mL.
In the case of B2, the “EC50 (read off the curve)” value is reported as roughly 4 ng/mL.
For B3, the “EC50 (read off the curve)” value was roughly 20 ng/mL.
For B4, the “EC50 (read off the curve)” value was roughly 3 ng/mL.
With B5 the “EC50 (read off the curve)” value was roughly 4 ng/mL.

— patent US20210179727A1 (LYVGEN BIOPHARMA, published 2021)
